Test results reported in patent US20230235004A1 (published 2023).

T1: human MAdCAM expressed on cells (human, UniProt Q13477 19-382)
T1 construct: whole, on cells
T1 sequence (looked up): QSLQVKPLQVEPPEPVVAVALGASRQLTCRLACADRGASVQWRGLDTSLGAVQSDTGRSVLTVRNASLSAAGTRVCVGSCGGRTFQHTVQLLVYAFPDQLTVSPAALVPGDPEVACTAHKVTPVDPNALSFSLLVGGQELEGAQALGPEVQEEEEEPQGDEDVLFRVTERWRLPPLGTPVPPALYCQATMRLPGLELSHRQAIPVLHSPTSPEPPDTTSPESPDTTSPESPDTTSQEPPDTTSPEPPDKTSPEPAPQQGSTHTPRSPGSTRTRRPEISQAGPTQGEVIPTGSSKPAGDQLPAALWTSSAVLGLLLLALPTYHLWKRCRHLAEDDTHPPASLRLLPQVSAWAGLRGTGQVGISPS

T2: mouse MAdCAM expressed on cells (mouse, UniProt Q61826 22-405)
T2 construct: whole, on cells
T2 sequence (looked up): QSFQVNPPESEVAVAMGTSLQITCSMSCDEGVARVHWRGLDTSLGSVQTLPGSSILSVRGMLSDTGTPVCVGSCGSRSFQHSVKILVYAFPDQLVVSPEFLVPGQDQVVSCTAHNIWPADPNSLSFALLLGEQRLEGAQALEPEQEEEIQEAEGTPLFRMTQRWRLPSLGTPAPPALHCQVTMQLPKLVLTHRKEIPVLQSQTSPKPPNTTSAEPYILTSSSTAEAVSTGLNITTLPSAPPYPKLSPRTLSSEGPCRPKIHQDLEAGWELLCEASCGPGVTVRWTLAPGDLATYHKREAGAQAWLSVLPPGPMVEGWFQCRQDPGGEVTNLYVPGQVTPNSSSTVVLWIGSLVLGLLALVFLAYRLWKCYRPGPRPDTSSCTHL


Tests used:
[1] = target: T1, human MAdCAM expressed on cells; experiment: cell binding
[2] = target: T2, mouse MAdCAM expressed on cells; experiment: cell binding

| binding result [1] | binding result [2] | Binder |
| --- | --- | --- |
| binds | no binding | MAdCAM antibody Table 1 clone 33 (scFv) scFv: QVQLVQSGAEVKKPGASVKVSCKASGYTFTSYGISWVRQAPGQGLEWMGWMHPKSGDTGLTQKFQGRVTMTRDTSTSTVYMELSSLRSEDTAVYYCARDTPYYYYGMDVWGQGTTVTVSSGGGGSGGGGSGGGGSGGGGSDIQMTQSPSSLSASVGDRVTITCRASQSISSWLAWYQQKPGKAPKLLIYAASSLQSGVPSRFSGSGSGTDFTLTISSLQPEDFATYYCQQSYSVPITFGQGTKVEIK |
| binds | no binding | MAdCAM antibody Table 1 clone 35 (scFv) scFv: EVQLLESGGGLVQPGGSLRLSCAASGFSFSSYTMNWVRQAPGKGLEWVSFITSSSRTIYYADSVKGRFTISRDNSKNTLYLQMNSLRAEDTAVYYCARDRRGDYGDSWYFDLWGRGTLVTVSSGGGGSGGGGSGGGGSGGGGSEIVMTQSPATLSVSPGERATLSCRASQSVRNYLAWYQQKPGQAPRLLIYGASTRATGIPARFSGSGSGTEFTLTISSLQSEDFAVYYCQQYGSSPLTFGGGTKVEIK |
| binds | no binding | MAdCAM antibody Table 1 clone 45 (scFv) scFv: EVQLLESGGGLVQPGGSLRLSCAASGFSVSSNYMSWVRQAPGKGLEWVAGISYDGSSKPYADSVKGRFTISRDNSKNTLYLQMNSLRAEDTAVYYCARSRGIAARPLQHWGQGTLVTVSSGGGGSGGGGSGGGGSGGGGSDIVMTQSPDSLAVSLGERATINCKSSQSVLYSSNNKNYLAWYQQKPGQPPKLLIYWASTRQSGVPDRFSGSGSGTDFTLTISSLQAEDVAVYYCHQYYGHPPTFGGGTKVEIK |
| binds | no binding | MAdCAM antibody Table 1 clone 44 (scFv) scFv: EVQLVESGGGLVKPGGSLRLSCAASGFTFSSYWMSWVRQAPGKGLEWVSAIGTGGGTYYAAPVKGRFTISRDDSKNTLYLQMNSLKTEDTAVYYCAREWLVPYYGMDVWGQGTTVTVSSGGGGSGGGGSGGGGSGGGGSDIQMTQSPSSLSASVGDRVTITCRASQSISRWLAWYQQKPGKAPKLLIYGASNLQSGVPSRFSGSGSGTDFTLTISSLQPEDFATYYCQQSYSTPWTFGQGTKVEIK |
| binds | no binding | MAdCAM antibody Table 1 clone 38 (scFv) scFv: EVQLLESGGGLVQPGGSLRLSCAASGFTFGSYSMSWVRQAPGKGLEWVSAIGTGGGTYYADSVKGRFTISRDNSKNTLYLQMNSLRAEDTAVYYCAKGTPYYYYYGMDVWGQGTMVTVSSGGGGSGGGGSGGGGSGGGGSDIQMTQSPSSLSASVGDRVTITCRASQPLSNWLAWYQQKPGKAPKLLIYAASSLQSGVPSRFSGSGSGTDFTLTISSLQPEDFATYYCQQAISFPLTFGGGTKVEIK |
| binds | no binding | MAdCAM antibody Table 1 clone 31 (scFv) scFv: QVQLVQSGAEVKKPGASVKVSCKASGYTFTSYYMHWVRQAPGQGLEWMGIINPSGGSTSYAQKFQGRVTMTRDTSTSTVYMELSSLRSEDTAVYYCARDTGYSYGRYYYYGMDVWGQGTLVTVSSGGGGSGGGGSGGGGSGGGGSDIQMTQSPSSLSASVGDRVTITCRASQSIGRWLAWYQQKPGKAPKLLIYDASNLQSGVPSRFSGSGSGTDFTLTISSLQPEDFATYYCQQSYSIPITFGQGTKVEIK |
| binds | no binding | MAdCAM antibody Table 1 clone 36 (scFv) scFv: QVQLVQSGAEVKKPGASVKVSCKASGYTFTGHYMHWVRQAPGQGLEWMGIINPSGGSTSYAQKFQGRVTMTRDTSTSTVYMELSSLRSEDTAVYYCARDTGYSYGRYYYYGMDVWGQGTTVTVSSGGGGSGGGGSGGGGSGGGGSDIQMTQSPSSLSASVGDRVTITCRASQSIGRWLAWYQQKPGKAPKLLIYDASNLQSGVPSRFSGSGSGTDFTLTISSLQPEDFATYYCQQSYSIPITFGGGTKVEIK |
| binds | no binding | MAdCAM antibody Table 1 clone 37 (scFv) scFv: QVQLVQSGAEVKKPGASVKVSCKASGYTFSKHFVHWVRQAPGQGLEWMGWMNPNSGNSGYAQKFQGRVTMTRDTSTSTVYMELSSLRSEDTAVYYCARGEGGYYYYGMDVWGQGTLVTVSSGGGGSGGGGSGGGGSGGGGSDIQMTQSPSSLSASVGDRVTITCRASQSISSWLAWYQQKPGKAPKLLIYAASTLQSGVPSRFSGSGSGTDFTLTISSLQPEDFATYYCQQSYSTPWTFGQGTKVEIK |
| binds | no binding | MAdCAM antibody Table 1 clone 29 (scFv) scFv: QVQLVQSGAEVKKPGASVKVSCKASGYTFTSYYMHWVRQAPGQGLEWMAWMNPNSGNTGYAQKFQGRVTMTRDTSTSTVYMELSSLRSEDTAVYYCARDYDFWSGSLGYWGQGTLVTVSSGGGGSGGGGSGGGGSGGGGSDIQMTQSPSSLSASVGDRVTITCRASQGISNYLAWYQQKPGKAPKLLIYAASSLQSGVPSRFSGSGSGTDFTLTISSLQPEDFATYYCQQSYSTPWTFGQGTKVEIK |
| binds | no binding | MAdCAM antibody Table 1 clone 32 (scFv) scFv: QVQLVQSGAEVKKPGASVKVSCKASGYTLTDYYMHWVRQAPGQGLEWMGIINPSGGSTSYAQKFQGRVTMTRDTSTSTVYMELSSLRSEDTAVYYCAREEYSSSSGYFDYWGQGTLVTVSSGGGGSGGGGSGGGGSGGGGSDIQMTQSPSSLSASVGDRVTITCRASQGISSWLAWYQQKPGKAPKLLIYAASSLQSGVPSRFSGSGSGTDFTLTISSLQPEDFATYYCQQSYSTPLTFGQGTKVEIK |
| binds | no binding | MAdCAM antibody Table 1 clone 43 (scFv) scFv: EVQLLESGGGLVQPGGSLRLSCAASGFTFDDFAMHWVRQAPGKGLEWVSGISGNGDSRYYADSVKGRFTISRDNSKNTLYLQMNSLRAEDTAVYYCARDASYGGNYGMDVWGQGTTVTVSSGGGGSGGGGSGGGGSGGGGSDIQMTQSPSSLSASVGDRVTITCQASQDIRNYLNWYQQKPGKAPKLLIYKASTLESGVPSRFSGSGSGTDFTLTISSLQPEDFATYYCQQANSFPLTFGPGTKVDIK |
| binds | no binding | MAdCAM antibody Table 1 clone 56 (scFv) scFv: EVQLLESGGGLVQPGGSLRLSCAASGFTFDDYAMHWVRQAPGKGLEWVSAISGGGEDTYYADSVKGRFTISRDNSKNTLYLQMNSLRAEDTAVYYCARDASYGGNYGMDVWGQGTTVTVSSGGGGSGGGGSGGGGSGGGGSDIQMTQSPSSLSASVGDRVTITCQASQDIRNYLNWYQQKPGKAPKLLIYKASSLESGVPSRFSGSGSGTDFTLTISSLQPEDFATYYCQQANSYPVTFGGGTKVEIK |
| binds | no binding | MAdCAM antibody Table 1 clone 39 (scFv) scFv: QVQLVQSGAEVKKPGASVKVSCKASGYTFTSYYMHWVRQAPGQGLEWMGWMNPNSGNTGYAQKFQGRVTMTRDTSTSTVYMELSSLRSEDTAVYYCARDLGYYDSSGYFGAFDIWGQGTTVTVSSGGGGSGGGGSGGGGSGGGGSDIQMTQSPSSLSASVGDRVTITCQSSEDISSSLNWYQQKPGKAPKLLIYAASSLQIGVPSRFSGSGSGTDFTLTISSLQPEDFATYYCQQTYSTPYTFGQGTKVEIK |
| binds | no binding | MAdCAM antibody Table 1 clone 42 (scFv) scFv: QVQLVQSGAEVKKPGSSVKVSCKASGGTLSRYGVSWVRQAPGQGLEWMGGIIPIFGTTNYAQKFQGRVTITADESTSTAYMELSSLRSEDTAVYYCARDRVYYDSSGYPTWYFDLWGRGTLVTVSSGGGGSGGGGSGGGGSGGGGSEIVMTQSPATLSVSPGERATLSCRASQSVSSSYLAWYQQKPGQAPRLLIYGASTRATGIPARFSGSGSGTEFTLTISSLQSEDFAVYYCQQYGSSPITFGQGTKVEIK |
| binds | no binding | MAdCAM antibody Table 1 clone 40 (scFv) scFv: QVQLVQSGAEVKKPGASVKVSCKASGYTFTSYGISWVRQAPGQGLEWMGIINPRGGSTIFAQKFQGRVTMTRDTSTSTVYMELSSLRSEDTAVYYCARGTRSSGWYGWFDPWGQGTLVTVSSGGGGSGGGGSGGGGSGGGGSDIQMTQSPSSLSASVGDRVTITCRASQGIGNWLAWYQQKPGKAPKLLIYAASNLETGVPSRFSGSGSGTDFTLTISSLQPEDFATYYCQQIHSYPLTFGGGTKVEIK |
| binds | no binding | MAdCAM antibody Table 1 clone 28 (scFv) scFv: QVQLVQSGAEVKKPGASVKVSCKASGYTFTDYFLHWVRQAPGQGLEWMGWMNPTSGNTGYAQKFQGRVTMTRDTSTSTVYMELSSLRSEDTAVYYCAREGEGSGFDYWGQGTLVTVSSGGGGSGGGGSGGGGSGGGGSDIQMTQSPSSLSASVGDRVTITCRASQGINSWLAWYQQKPGKAPKLLIYDASNLETGVPSRFSGSGSGTDFTLTISSLQPEDFATYYCQQSYSTPLTFGGGTKVEIK |
